Measurements as given in PMC2838725 (Biochemistry, 2010).
No end group written: not given here.

T1: C-terminal domain of Stt3p (residues 466-718), N-terminal His6-tagged (Saccharomyces cerevisiae, UniProt P39007 466-718)
T1 sequence (looked up): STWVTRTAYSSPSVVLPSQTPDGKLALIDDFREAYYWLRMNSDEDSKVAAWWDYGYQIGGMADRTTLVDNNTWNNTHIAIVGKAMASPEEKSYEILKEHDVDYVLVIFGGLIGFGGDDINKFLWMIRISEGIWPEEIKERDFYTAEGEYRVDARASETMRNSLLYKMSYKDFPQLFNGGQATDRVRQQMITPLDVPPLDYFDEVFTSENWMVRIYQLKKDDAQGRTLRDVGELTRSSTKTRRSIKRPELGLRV


Key:
[1] = molecular target: C-terminal domain of Stt3p (residues 466-718), N-terminal His6-tagged (Saccharomyces cerevisiae) (UniProt P39007); experiment: NMR titration
[2] = molecular target: T1, C-terminal domain of Stt3p (residues …); experiment: saturation transfer difference

Molecule | Kd [1] [mM] | binding result [2]
substrate peptide Asn-Asp-Thr-NH2 | 9.97 | –
YNSTSC-NH2 [six-residue acceptor substrate peptide Tyr-Asn-Ser-Thr-Ser-Cys-Am] | – | binds
